Data taken from publication PMC10778272 (2023).

What was measured:
[1] = target: T1, GST-Synm-CT (fusion protein of the carboxy-terminus of synemin, amino acids 1464-1565, with GST) (Homo sapiens (Human), UniProt O15061); assay: Western blot overlay
T1 chain: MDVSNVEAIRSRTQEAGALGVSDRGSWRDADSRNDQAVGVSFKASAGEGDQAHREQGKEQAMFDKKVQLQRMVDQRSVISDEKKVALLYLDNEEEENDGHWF

[2] = target: T2, GST-Synm-CTΔ (carboxy-terminally truncated synemin, amino acids 1464-1533, fused to GST) (Homo sapiens (Human), UniProt O15061); assay: Western blot overlay
T2 chain: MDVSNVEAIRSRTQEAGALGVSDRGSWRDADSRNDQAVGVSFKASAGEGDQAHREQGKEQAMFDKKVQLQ

binding result [1]: binds | binding result [2]: no binding
B1: T7-tagged PDZ domain of SYNPO2 (protein)
chain: MGTGDFICISMTGGAPWGFRLQGGKEQKQPLQVAKIRNQSKASGSGLCEGDEVVSINGNPCADLTYPEVIKLMESITDSLQMLIKRPSSGISEALISENENKNLEHLTHGGYVESTTLQIRPATKTQCTEFFLAPVKTEVPLAENQRSGPDCAGSLKEETGPSYQRAPQMPDSQRGRVAE
